Biological target: CD11b/CD18 receptor on J774A.1 murine monocytes/macrophages (murine) (UniProt P05555)
Test: cell-based or functional assay

## CyaA/233OVA/K860R/AC- (from UniProt J7QLC0 1-1706)
  Lysis of J774A.1 cells (% of AC-): 72 % of AC-

— patent US9222143
